Assay [1] deals with cpMVPvsvg vaults (MVP with an N-terminal cysteine rich peptide and a C-terminal VSVG tag). As to the kind of experiment: co-IP.
The target of assay [2] is cpMVP vaults (MVP with an N-terminal cysteine rich peptide). Nature of the assay: SAXS.

This is an account of results in PMC3020078.

“And” between values parts separate entries of the source, which are not always exact repeats. Equal values may be shown once.

“HisT7MVP vaults (MVP with N-terminal T7 tag) (from UniProt Q62667 1-861) (natural protein)” yielded a stoichiometry N (HisT7MVP:cpMVPvsvg) in assay [1] of 0.8.

As for “cpMVP vaults (MVP with an N-terminal cysteine rich peptide) (natural protein)”, the percent of the protein mass as full vaults in assay [2] was 46% and 49%.
